Assay results from patent US20030195338A1.

Assays:
TNFα = TNFα (UniProt P01375); test: cell-based or functional assay
TNFβ = target: T1, TNFβ (UniProt P01374); test: cell-based or functional assay
T1 sequence (looked up): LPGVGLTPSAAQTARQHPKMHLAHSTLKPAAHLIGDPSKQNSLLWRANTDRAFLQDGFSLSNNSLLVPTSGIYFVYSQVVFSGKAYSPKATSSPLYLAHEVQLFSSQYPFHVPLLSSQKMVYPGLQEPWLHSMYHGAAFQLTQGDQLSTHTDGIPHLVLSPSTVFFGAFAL

Chain of TNFα (P01375 77-233 limits assumed): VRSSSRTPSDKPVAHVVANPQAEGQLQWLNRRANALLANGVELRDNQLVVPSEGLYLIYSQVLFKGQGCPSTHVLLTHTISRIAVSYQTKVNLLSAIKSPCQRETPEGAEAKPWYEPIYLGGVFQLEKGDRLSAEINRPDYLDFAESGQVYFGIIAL
Chain of concatameric fusion dimeric protein [TNFR2-TNFR2/Fc]2 (Fc fusion) (chain): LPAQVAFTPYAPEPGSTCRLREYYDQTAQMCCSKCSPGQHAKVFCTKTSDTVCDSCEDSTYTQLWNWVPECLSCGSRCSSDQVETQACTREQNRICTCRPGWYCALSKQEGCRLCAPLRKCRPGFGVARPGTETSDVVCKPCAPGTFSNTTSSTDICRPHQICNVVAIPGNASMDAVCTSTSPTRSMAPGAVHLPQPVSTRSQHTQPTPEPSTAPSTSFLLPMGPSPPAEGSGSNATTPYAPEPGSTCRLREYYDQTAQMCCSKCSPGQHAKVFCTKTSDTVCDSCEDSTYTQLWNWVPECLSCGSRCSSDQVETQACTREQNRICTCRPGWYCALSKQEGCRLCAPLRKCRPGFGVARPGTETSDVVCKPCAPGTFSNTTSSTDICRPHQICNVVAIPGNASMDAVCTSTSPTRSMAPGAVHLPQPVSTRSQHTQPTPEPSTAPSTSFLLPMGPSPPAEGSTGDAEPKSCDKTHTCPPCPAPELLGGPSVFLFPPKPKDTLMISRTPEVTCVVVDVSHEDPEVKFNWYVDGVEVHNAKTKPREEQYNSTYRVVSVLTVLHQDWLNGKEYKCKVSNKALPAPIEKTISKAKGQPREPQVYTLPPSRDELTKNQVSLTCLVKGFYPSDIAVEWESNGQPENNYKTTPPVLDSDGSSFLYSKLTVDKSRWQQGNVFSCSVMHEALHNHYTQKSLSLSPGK
Chain of simple fusion dimeric protein [TNFR2/Fc]2 (Fc fusion) (chain): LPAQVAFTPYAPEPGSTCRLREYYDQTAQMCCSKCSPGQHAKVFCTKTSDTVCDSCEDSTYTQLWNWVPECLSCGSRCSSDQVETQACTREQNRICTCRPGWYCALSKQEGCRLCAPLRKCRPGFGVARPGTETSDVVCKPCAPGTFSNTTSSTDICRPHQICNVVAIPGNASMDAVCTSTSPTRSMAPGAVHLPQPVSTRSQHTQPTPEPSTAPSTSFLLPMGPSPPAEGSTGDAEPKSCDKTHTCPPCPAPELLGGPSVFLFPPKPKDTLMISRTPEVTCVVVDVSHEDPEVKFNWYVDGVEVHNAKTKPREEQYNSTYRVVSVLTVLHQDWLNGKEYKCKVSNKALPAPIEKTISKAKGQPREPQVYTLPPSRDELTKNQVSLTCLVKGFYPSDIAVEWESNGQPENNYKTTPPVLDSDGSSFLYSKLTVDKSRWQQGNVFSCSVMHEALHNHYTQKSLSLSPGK
Chain of concatameric fusion dimeric protein [TNFR1-TNFR1/Fc]2 (Fc fusion) (chain): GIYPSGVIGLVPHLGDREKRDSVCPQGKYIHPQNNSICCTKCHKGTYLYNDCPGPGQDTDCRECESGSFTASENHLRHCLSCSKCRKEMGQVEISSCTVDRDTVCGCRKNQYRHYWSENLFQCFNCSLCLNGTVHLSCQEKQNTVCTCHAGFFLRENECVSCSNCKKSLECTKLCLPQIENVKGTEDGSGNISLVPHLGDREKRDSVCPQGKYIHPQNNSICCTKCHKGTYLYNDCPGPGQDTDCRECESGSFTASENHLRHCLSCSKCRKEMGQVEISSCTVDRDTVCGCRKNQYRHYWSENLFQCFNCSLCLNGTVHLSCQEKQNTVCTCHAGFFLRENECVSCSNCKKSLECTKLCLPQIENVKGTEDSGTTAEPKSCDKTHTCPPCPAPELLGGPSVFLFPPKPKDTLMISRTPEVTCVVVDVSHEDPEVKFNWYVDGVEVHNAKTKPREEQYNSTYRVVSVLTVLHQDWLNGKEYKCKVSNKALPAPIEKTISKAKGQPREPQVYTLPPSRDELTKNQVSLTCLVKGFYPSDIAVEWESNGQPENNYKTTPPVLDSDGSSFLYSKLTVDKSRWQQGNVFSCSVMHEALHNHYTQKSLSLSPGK
Chain of simple fusion dimeric protein [TNFR1/Fc]2 (Fc fusion) (chain): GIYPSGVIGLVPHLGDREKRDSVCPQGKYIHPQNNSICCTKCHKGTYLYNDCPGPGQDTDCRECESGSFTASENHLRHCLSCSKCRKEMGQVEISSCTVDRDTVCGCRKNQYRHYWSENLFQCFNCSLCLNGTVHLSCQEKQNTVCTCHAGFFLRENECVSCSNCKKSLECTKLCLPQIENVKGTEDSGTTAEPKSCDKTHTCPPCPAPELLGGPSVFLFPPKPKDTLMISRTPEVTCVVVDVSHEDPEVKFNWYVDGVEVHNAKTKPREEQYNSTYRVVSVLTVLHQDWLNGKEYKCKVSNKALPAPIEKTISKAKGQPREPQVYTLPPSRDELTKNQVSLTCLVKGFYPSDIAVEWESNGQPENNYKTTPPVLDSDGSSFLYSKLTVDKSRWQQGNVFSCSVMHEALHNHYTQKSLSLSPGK

Which IC50 of cytotoxicity inhibition, L929 cells, TNFα treated (TNFα) does the source give for “concatameric fusion dimeric protein [TNFR1-TNFR1/Fc]2 (Fc fusion)” here?
The IC50 of cytotoxicity inhibition, L929 cells, TNFα treated was 9 µg/mL.

And the IC50 of cytotoxicity inhibition, L929 cells, TNFβ treated (TNFβ)?
Its IC50 of cytotoxicity inhibition, L929 cells, TNFβ treated is 20 µg/mL.

“concatameric fusion dimeric protein [TNFR2-TNFR2/Fc]2 (Fc fusion)” was tested. Which IC50 of cytotoxicity inhibition, L929 cells, TNFα treated (TNFα) did it give?
The IC50 of cytotoxicity inhibition, L929 cells, TNFα treated was 15 µg/mL.

What about the IC50 of cytotoxicity inhibition, L929 cells, TNFβ treated (TNFβ) of the same substance?
Its IC50 of cytotoxicity inhibition, L929 cells, TNFβ treated is 15 µg/mL.

With “simple fusion dimeric protein [TNFR1/Fc]2 (Fc fusion)” as the substance, how does the IC50 of cytotoxicity inhibition, L929 cells, TNFα treated (TNFα) read?
The IC50 of cytotoxicity inhibition, L929 cells, TNFα treated was 63 µg/mL.

What about the IC50 of cytotoxicity inhibition, L929 cells, TNFβ treated (TNFβ) of the same substance?
Its IC50 of cytotoxicity inhibition, L929 cells, TNFβ treated is 129 µg/mL.

Which IC50 of cytotoxicity inhibition, L929 cells, TNFα treated (TNFα) does the source give for “simple fusion dimeric protein [TNFR2/Fc]2 (Fc fusion)” here?
The IC50 of cytotoxicity inhibition, L929 cells, TNFα treated was 189 µg/mL.

And the IC50 of cytotoxicity inhibition, L929 cells, TNFβ treated (TNFβ)?
Its IC50 of cytotoxicity inhibition, L929 cells, TNFβ treated is 469 µg/mL.
